# Experimental data from publication PMC6211539, “Structures of collagen IV globular domains: insight into associated pathologies, folding and network assembly” (IUCrJ, 2018).
# Values joined by “and” are separate entries in the source; they are usually repeats but may differ in a detail not shown here. Identical values can stand only once.
# B1: noncollagenous C-terminal domain (NC1) of the collagen IV α2 chain, recombinant, from insect cells (domain or fragment, human)
# chain: SVSIGYLLVKHSQTDQEPMCPVGMNKLWSGYSLLYFEGQEKAHNQDLGLAGSCLARFSTMPFLYCNPGDVCYYASRNDKSYWLSTTAPLPMMPVAEDEIKPYISRCSVCEAPAIAIAVHSQDVSIPHCPAGWRSLWIGYSFLMHTAAGDEGGGQSLVSPGSCLEDFRATPFIECNGGRGTCHYYANKYSFWLTTIPEQSFQGSPSADTLKAGLIRTHISRCQVCMKNL
# notes: collagen IV α2 chain, human, NC1 domain; The construct has an N-terminal BM40 secretion peptide followed by the FLAG tag; Used for the α121NC1 crystals (expressed in insect cells); also called α2NC1; α2(IV)NC1
# B2: noncollagenous C-terminal domain (NC1) of the collagen IV α1 chain, recombinant (domain or fragment, human)
# chain: SVDHGFLVTRHSQTIDDPQCPSGTKILYHGYSLLYVQGNERAHGQDLGTAGSCLRKFSTMPFLFCNINNVCNFASRNDYSYWLSTPEPMPMSMAPITGENIRPFISRCAVCEAPAMVMAVHSQTIQIPPCPSGWSSLWIGYSFVMHTSAGAEGSGQALASPGSCLEEFRSAPFIECHGRGTCNYYANAYSFWLATIERSEMFKKPTPSTLKAGELRTHVSRCQVCMRRT
# notes: collagen IV α1 chain, human, NC1 domain (about 230 C-terminal residues); The construct has an N-terminal BM40 secretion peptide followed by the FLAG tag; also called α1NC1; α1(IV)NC1
# What was measured:
# [1] = molecular target: noncollagenous C-terminal domain (NC1) of the collagen IV α4 chain, recombinant (human) (UniProt P53420); experiment: crystal structure; α4NC1 alone; sitting drop, 21°C; protein in 50 mM Tris-HCl pH 7.4, 0.15 M NaCl; 6% PEG 3350, 0.2 M Na acetate, 0.1 M MES pH 6.5
# [2] = molecular target: noncollagenous C-terminal domain (NC1) of the collagen IV α3 chain, recombinant (human) (UniProt Q01955); experiment: crystal structure; α3NC1 alone; sitting drop, 21°C; protein in 50 mM Tris-HCl pH 7.4, 0.5 M NaCl; 16% PEG 3350, 0.2 M MgCl2, 0.1 M bis-tris propane pH 7.5
# [3] = molecular target: noncollagenous C-terminal domain (NC1) of the collagen IV α3 chain, recombinant (human) (UniProt Q01955); experiment: SPR; Biacore T100; α3NC1 or α5NC1 amine-coupled to CM5 chip (~1000 RU); α3NC1 or α5NC1 flowed over; 25°C; 10 mM Tris-HCl pH 7.4, 0.15 M NaCl, 3 mM EDTA, 0.005% surfactant P20; self-association
# [4] = molecular target: B2; experiment: crystal structure; 2:1 mixture (in terms of mass) of α1NC1 and α2NC1; sitting drop, 21°C; protein in 50 mM Tris-HCl pH 7.4, 0.15 M NaCl; 10% PEG 8000, 0.2 M Mg acetate; conditions: both partners purified
# [5] = molecular target: the molecule itself; experiment: crystal structure; α2NC1 (from HEK293 cells) alone; sitting drop, 21°C; protein in 50 mM Tris-HCl pH 7.4, 0.15 M NaCl; 22% polyvinylpyrrolidone K15, 0.1 M Na2SO4, 0.1 M MES pH 6.5
# [6] = molecular target: the molecule itself; experiment: crystal structure; α1NC1 alone; sitting drop, 21°C; protein in 50 mM Tris-HCl pH 7.4, 0.15 M NaCl; 1.4 M Li2SO4, 0.1 M MES pH 6.5
# [7] = molecular target: B1; experiment: crystal structure; 2:1 mixture (in terms of mass) of α1NC1 and α2NC1; sitting drop, 21°C; protein in 50 mM Tris-HCl pH 7.4, 0.15 M NaCl; 10% PEG 8000, 0.2 M Mg acetate; conditions: both partners purified
# [8] = molecular target: the molecule itself; experiment: crystal structure; crystals from a 1:1:1 mixture of α3NC1, α4NC1 and α5NC1; sitting drop, 21°C; protein in 50 mM Tris-HCl pH 7.4, 0.15 M NaCl; 20% PEG 8000, 0.2 M NaCl, 0.1 M CAPS pH 10.5
# [9] = molecular target: the molecule itself; experiment: SPR; Biacore T100; α3NC1 or α5NC1 amine-coupled to CM5 chip (~1000 RU); α3NC1 or α5NC1 flowed over; 25°C; 10 mM Tris-HCl pH 7.4, 0.15 M NaCl, 3 mM EDTA, 0.005% surfactant P20; self-association
molecule,measurement,setting,value
"noncollagenous C-terminal domain (NC1) of the collagen IV α4 chain, recombinant (from UniProt P53420 1461-1690) (domain or fragment)",stoichiometry N,[1],12 subunits
"noncollagenous C-terminal domain (NC1) of the collagen IV α3 chain, recombinant (from UniProt Q01955 1441-1670) (domain or fragment)",stoichiometry N,[2],6 subunits
same,Kd,[3],1.71 µM
B1,binding result,[4],binds
"noncollagenous C-terminal domain (NC1) of the collagen IV α2 chain, recombinant, from HEK293 cells (domain or fragment, human, collagen IV α2 chain, human, NC1 domain; N-terminally FLAG-tagged fusion protein; Used for the α2NC1 crystals; also called α2NC1; α2NC1_(homo); source: HEK293 cells, purified as described elsewhere (Sado et al., 1998)) SVSIGYLLVKHSQTDQEPMCPVGMNKLWSGYSLLYFEGQEKAHNQDLGLAGSCLARFSTMPFLYCNPGDVCYYASRNDKSYWLSTTAPLPMMPVAEDEIKPYISRCSVCEAPAIAIAVHSQDVSIPHCPAGWRSLWIGYSFLMHTAAGDEGGGQSLVSPGSCLEDFRATPFIECNGGRGTCHYYANKYSFWLTTIPEQSFQGSPSADTLKAGLIRTHISRCQVCMKNL",stoichiometry N,[5],8 subunits and 4 subunits
B2,stoichiometry N,[6],6 subunits
same,stoichiometry N,[7],2 α1NC1 per α2NC1
"noncollagenous C-terminal domain (NC1) of the collagen IV α5 chain, recombinant (domain or fragment, human, collagen IV α5 chain, human, NC1 domain; The construct has an N-terminal BM40 secretion peptide followed by the FLAG tag; also called α5NC1; α5(IV)NC1) SVAHGFLITRHSQTTDAPQCPQGTLQVYEGFSLLYVQGNKRAHGQDLGTAGSCLRRFSTMPFMFCNINNVCNFASRNDYSYWLSTPEPMPMSMQPLKGQSIQPFISRCAVCEAPAVVIAVHSQTIQIPHCPQGWDSLWIGYSFMMHTSAGAEGSGQALASPGSCLEEFRSAPFIECHGRGTCNYYANSYSFWLATVDVSDMFSKPQSETLKAGDLRTRISRCQVCMKRT",stoichiometry N,[8],6 subunits
same,Kd,[9],4.92 µM
